Here are results for 40 sequences from the supplement of paper PMC7877785.

± gives the uncertainty stated by the source.

The nature of the data set: self-splicing fitness, log relative to wild type (ln ratio); higher = more splicing; Tetrahymena group I intron in knt gene, E. coli kanamycin selection, DiMSum; sequences stand for … in CUCUCU…GGAGGGAAAAGUUAUCAGGCAUGCACCUGGUAGCUAGUCUUUAAACCAAUAGAUUGCAUCGGUUUAAAAGGCAAGACCGUCAAAUUGCGGGAAAGGGGUCAACAGCCGUUCAGUACCAAGUCUCAGGGGAAACUUUGAGAUGGCCUUGCAAAGGGUAUGGUAAUAAGCUGACGGACAUGGUCCUAACCACGCAGCCAAGUCCUAAGUCAACAGAUCUUCUGUUGAUAUGGAUGCAGUUCACAGACUAAAUGUCGGUCGGGGAAGAUGUAUUCUUCUCAUAAGAUAUAGUCGGACCUCUCCUUAAUGGGAGCUAGCGGAUGAAGUGAUGCAACACUGGAGCCGCUGGGAACUAAUUUGUAUGCGAAAGUAUAUUGAUUAGUUUUGGAGUACUCGUGGUCG
In a few lines: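 Colonies from six replicate transformations of E. coli BL21(DE3) were pooled and amplicon-sequenced on an Illumina HiSeq 2500. The library placed an intron with all eight P1ex-region nucleotides randomised inside the knt kanamycin-resistance gene on pET-22b(+), and cells grew overnight at 37°C or 30°C on LB agar with or without 25 μg/mL kanamycin (plus 100 μg/mL carbenicillin, 50 μM IPTG, 0.2% rhamnose). Fitness is the DiMSum error-weighted combination of wild-type-normalised replicate fold changes, kanamycin versus none.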

With CGUCAGCAAUAUUACGCACA, the “self-splicing fitness (ln)” value (30 °C) was -0.869 ± 0.09 and the “self-splicing fitness (ln)” value (37 °C) stood at 0.0106 ± 0.13.

For CGAAAGCAAUAUUACGUGGC, the “self-splicing fitness (ln)” value by setting is: (30 °C) -0.949 ± 0.12; (37 °C) -3.21 ± 0.32.

For the sequence ACUGAGCAAUAUUACGGACA, the “self-splicing fitness (ln)” value is, setting by setting: (30 °C) -2.8 ± 0.22; (37 °C) -2.27 ± 0.17.

On to CGCUAGCAAUAUUACGAAAU, for which the “self-splicing fitness (ln)” value (30 °C) is -3.5 ± 0.22 and the “self-splicing fitness (ln)” value (37 °C) was -2.01 ± 0.2.

CCAAAGCAAUAUUACGGUGC: the “self-splicing fitness (ln)” value by setting is: (30 °C) -4.01 ± 0.16; (37 °C) -2.19 ± 0.13.

On to GGUGAGCAAUAUUACGGCUA, for which the “self-splicing fitness (ln)” value by setting is: (30 °C) -0.0423 ± 0.12; (37 °C) 0.0315 ± 0.14.

For the sequence GGCAAGCAAUAUUACGUGCC, the “self-splicing fitness (ln)” value (37 °C) was -1.47 ± 0.43.

For AUGGAGCAAUAUUACGCUCU, the “self-splicing fitness (ln)” value (30 °C) is -3.56 ± 0.49 and the “self-splicing fitness (ln)” value (37 °C) was -1.45 ± 0.41.

As to CACAAGCAAUAUUACGCAAC, the “self-splicing fitness (ln)” value is -3.27 ± 0.26 (30 °C) and -2.27 ± 0.32 (37 °C).

Take CAUUAGCAAUAUUACGUAGC: the “self-splicing fitness (ln)” value is, setting by setting: (30 °C) -3.25 ± 0.19; (37 °C) -2.4 ± 0.17.

Regarding GCUUAGCAAUAUUACGCACC, the “self-splicing fitness (ln)” value reads like this: (30 °C) -0.796 ± 0.13; (37 °C) 0.115 ± 0.16.

As to GUCUAGCAAUAUUACGAAAA, the “self-splicing fitness (ln)” value was -2.3 ± 0.26 (30 °C) and -1.26 ± 0.22 (37 °C).

Regarding GUGCAGCAAUAUUACGACCG, the “self-splicing fitness (ln)” value was -2.18 ± 0.2 (30 °C) and -1.5 ± 0.27 (37 °C).

As to UUUGAGCAAUAUUACGCGCA, the “self-splicing fitness (ln)” value (37 °C) was -1.65 ± 0.48.

As for AGGAAGCAAUAUUACGAGUU, the “self-splicing fitness (ln)” value runs as follows: (30 °C) -3.11 ± 0.12; (37 °C) -1.03 ± 0.11.

For the sequence GGGUAGCAAUAUUACGAAAA, under “30 °C”, the “self-splicing fitness (ln)” value was -0.788 ± 0.35.

On to UUCUAGCAAUAUUACGAACG, for which the “self-splicing fitness (ln)” value (30 °C) is -3.61 ± 0.36 and the “self-splicing fitness (ln)” value (37 °C) is -1.15 ± 0.27.

Regarding CACAAGCAAUAUUACGAGGA, the “self-splicing fitness (ln)” value (30 °C) was -3.18 ± 0.25 and the “self-splicing fitness (ln)” value (37 °C) was -2.59 ± 0.19.

As for AUCAAGCAAUAUUACGGCGG, the “self-splicing fitness (ln)” value (30 °C) is -1.04 ± 0.066 and the “self-splicing fitness (ln)” value (37 °C) is -0.788 ± 0.091.

Take GAAAAGCAAUAUUACGGAAU: the “self-splicing fitness (ln)” value (30 °C) was -2.81 ± 0.13 and the “self-splicing fitness (ln)” value (37 °C) is -1.07 ± 0.1.

In the case of UAAGAGCAAUAUUACGACCU, under “30 °C”, the “self-splicing fitness (ln)” value is -1.34 ± 0.23.

As for ACCGAGCAAUAUUACGGUCG, the “self-splicing fitness (ln)” value was -3.22 ± 0.23 (30 °C) and -1.68 ± 0.15 (37 °C).

Regarding AUUAAGCAAUAUUACGGAGC, the “self-splicing fitness (ln)” value by setting is: (30 °C) -2.62 ± 0.34; (37 °C) -2.15 ± 0.31.

For the sequence CUCUAGCAAUAUUACGUAAC, the “self-splicing fitness (ln)” value (30 °C) is -3.47 ± 0.29.

For the sequence CUAAAGCAAUAUUACGUGUC, the “self-splicing fitness (ln)” value was -3.88 ± 0.2 (30 °C) and -2.85 ± 0.25 (37 °C).

As for AUCUAGCAAUAUUACGUCAU, the “self-splicing fitness (ln)” value is -1.41 ± 0.11 (30 °C) and -0.955 ± 0.12 (37 °C).

On to UGGUAGCAAUAUUACGCUGC, for which the “self-splicing fitness (ln)” value is -2.89 ± 0.31 (30 °C) and -2.86 ± 0.4 (37 °C).

On to AACAAGCAAUAUUACGGAAA, for which the “self-splicing fitness (ln)” value by setting is: (30 °C) -3.08 ± 0.15; (37 °C) -1.34 ± 0.11.

Consider UUUUAGCAAUAUUACGUGUC, for which the “self-splicing fitness (ln)” value is, setting by setting: (30 °C) -2.93 ± 0.3; (37 °C) -2.26 ± 0.38.

Turning to UGGGAGCAAUAUUACGAUAA, the “self-splicing fitness (ln)” value (30 °C) is -0.547 ± 0.44.

In the case of AAGUAGCAAUAUUACGUGGA, the “self-splicing fitness (ln)” value runs as follows: (30 °C) -3.83 ± 0.26; (37 °C) -2.14 ± 0.16.

For the sequence UUAAAGCAAUAUUACGCAGG, the “self-splicing fitness (ln)” value is, setting by setting: (30 °C) -0.165 ± 0.12; (37 °C) -0.592 ± 0.15.

As to CUAAAGCAAUAUUACGGCGG, the “self-splicing fitness (ln)” value by setting is: (30 °C) -0.171 ± 0.064; (37 °C) 0.0633 ± 0.081.

With ACAAAGCAAUAUUACGUCCG, the “self-splicing fitness (ln)” value reads like this: (30 °C) -0.802 ± 0.049; (37 °C) -0.466 ± 0.063.

GGAUAGCAAUAUUACGCCAG: the “self-splicing fitness (ln)” value reads like this: (30 °C) -2.63 ± 0.32; (37 °C) -0.526 ± 0.34.

On to GCCUAGCAAUAUUACGAAAG, for which the “self-splicing fitness (ln)” value by setting is: (30 °C) -4.21 ± 0.24; (37 °C) -1.07 ± 0.18.

With AUAGAGCAAUAUUACGAGGA, the “self-splicing fitness (ln)” value by setting is: (30 °C) -2.21 ± 0.23; (37 °C) -2.16 ± 0.27.

For UCACAGCAAUAUUACGAGCG, the “self-splicing fitness (ln)” value is -0.409 ± 0.064 (30 °C) and -0.305 ± 0.093 (37 °C).

With UAGAAGCAAUAUUACGUGCU, the “self-splicing fitness (ln)” value (30 °C) was -2.8 ± 0.21 and the “self-splicing fitness (ln)” value (37 °C) is -2.42 ± 0.24.

Regarding CCCCAGCAAUAUUACGAUAG, the “self-splicing fitness (ln)” value (30 °C) was -3.16 ± 0.1 and the “self-splicing fitness (ln)” value (37 °C) was -3.25 ± 0.17.
